B1: TVU155 (bispecific antibody, human IgG1, kappa, lambda, L234A L235A)
heavy 1: EVQLLESGGGLVQPGGSLRLSCAASGFTFSINAMTWVRQAPGKGLEWVSTISGSGFSTYYADSLKGRFTISRDNSKNTLYLQMNSLRAEDTAVYYCAKEVYGDYWGQGTLVTVSSASTKGPSVFPLAPSSKSTSGGTAALGCLVKDYFPEPVTVSWNSGALTSGVHTFPAVLQSSGLYSLSSVVTVPSSSLGTQTYICNVNHKPSNTKVDKRVEPKSCDKTHTCPPCPAPEAAGGPSVFLFPPKPKDTLMISRTPEVTCVVVDVSHEDPEVKFNWYVDGVEVHNAKTKPREEQYNSTYRVVSVLTVLHQDWLNGKEYKCKVSNKALAAPIEKTISKAKGQPREPQVCTLPPSREEMTKNQVSLSCAVKGFYPSDIAVEWESNGQPENNYKTTPPVLDSDGSFFLVSKLTVDKSRWQQGNVFSCSVMHEALHNHYTQKSLSLSPGK
light 1: not shown
heavy 2: QVQLQESGPGLVKPSETLSLTCTVSGGSISSDYWGWIRQPPGKGLEWIGYISYRGSTNYNPSLKSRVTISVDTSRNQFSLKLSSVTAADTAVYYCARSAGVTDFDAWGQGTLVTVSSASTKGPSVFPLAPSSKSTSGGTAALGCLVKDYFPEPVTVSWNSGALTSGVHTFPAVLQSSGLYSLSSVVTVPSSSLGTQTYICNVNHKPSNTKVDKRVEPKSCDKTHTCPPCPAPEAAGGPSVFLFPPKPKDTLMISRTPEVTCVVVDVSHEDPEVKFNWYVDGVEVHNAKTKPREEQYNSTYRVVSVLTVLHQDWLNGKEYKCKVSNKALAAPIEKTISKAKGQPREPQVYTLPPCREEMTKNQVSLWCLVKGFYPSDIAVEWESNGQPENNYKTTPPVLDSDGSFFLYSKLTVDKSRWQQGNVFSCSVMHEALHNHYTQKSLSLSPGK
light 2: not shown
B2: WBL338 (bispecific antibody)
heavy 1: EVQLLESGGGLVQPGGSLRLSCAASGFTFSINAMTWVRQAPGKGLEWVSTISGSGFSTYYADSLKGRFTISRDNSKNTLYLQMNSLRAEDTAVYYCAKEVYGDYWGQGTLVTVSSASTKGPSVFPLAPSSKSTSGGTAALGCLVKDYFPEPVTVSWNSGALTSGVHTFPAVLQSSGLYSLSSVVTVPSSSLGTQTYICNVNHKPSNTKVDKRVEPKSCDKTHTCPPCPAPEAAGGPSVFLFPPKPKDTLMISRTPEVTCVVVDVSHEDPEVKFNWYVDGVEVHNAKTKPREEQYNSTYRVVSVLTVLHQDWLNGKEYKCKVSNKALAAPIEKTISKAKGQPREPQVCTLPPSREEMTKNQVSLSCAVKGFYPSDIAVEWESNGQPENNYKTTPPVLDSDGSFFLVSKLTVDKSRWQQGNVFSCSVMHEALHNHYTQKSLSLSPGK
light 1: not shown
heavy 2: QVQLQESGPGLVKPSETLSLTCTVSGGSISSDYWGWIRQPPGKGLEWIGYISYRGSTNYNPSLKSRVTISVDTSRNQFSLKLSSVTAADTAVYYCARSAGVTDFDWWGQGTLVTVSSASTKGPSVFPLAPSSKSTSGGTAALGCLVKDYFPEPVTVSWNSGALTSGVHTFPAVLQSSGLYSLSSVVTVPSSSLGTQTYICNVNHKPSNTKVDKRVEPKSCDKTHTCPPCPAPEAAGGPSVFLFPPKPKDTLMISRTPEVTCVVVDVSHEDPEVKFNWYVDGVEVHNAKTKPREEQYNSTYRVVSVLTVLHQDWLNGKEYKCKVSNKALAAPIEKTISKAKGQPREPQVYTLPPCREEMTKNQVSLWCLVKGFYPSDIAVEWESNGQPENNYKTTPPVLDSDGSFFLYSKLTVDKSRWQQGNVFSCSVMHEALHNHYTQKSLSLSPGK
light 2: not shown
B3: FYP014 (antibody, human IgG1, V domains shown)
VH: EVQLVESGGGLVKPGGSLRLSCAASGFIFSSYSMNWVRQAPGKGLEWVSSITSGSYYIHYADSVKGRFTISRDNAKNSLYLQMNSLRAEDTAVYYCVRERGWGYYGMDVWGQGTTVTVSS
VL: AIQLTQSPSSLSASVGDRVTITCRASQDIDSALAWYQQKPGKAPKILIHDASSLESGVPSRFSGSGSGTDFTLTISSLQPEDFATYYCQQFNSYPYTFGQGTKLEIK
notes: human IgG1; also called EP3103813A1 clone 366.328.10.63

Columns and labels:
[1] = target: T1, human IL-21 receptor (IL-21R) on cells (human, UniProt Q9HBE5 20-538; P31785 23-369); experiment: cell-based or functional assay
[2] = target: T1, human IL-21 receptor (IL-21R) on cells; experiment: cell-based or functional assay; remark: listed apart in the source
[3] = target: recombinant human IL-21 (rhIL-21) (human, UniProt Q9HBE4 30-162, limits assumed); experiment: cell-based or functional assay
[4] = target: T2, recombinant IL-21Ra-Fc (AcroBiosystems) (human, UniProt Q9HBE5 20-232); experiment: SPR, not shown
T2 construct: bought; also called rIL-21Rα; rIL-21Ra-Fc; not shown: Fc of the bought reagent, not described
T2 sequence (Q9HBE5 20-232): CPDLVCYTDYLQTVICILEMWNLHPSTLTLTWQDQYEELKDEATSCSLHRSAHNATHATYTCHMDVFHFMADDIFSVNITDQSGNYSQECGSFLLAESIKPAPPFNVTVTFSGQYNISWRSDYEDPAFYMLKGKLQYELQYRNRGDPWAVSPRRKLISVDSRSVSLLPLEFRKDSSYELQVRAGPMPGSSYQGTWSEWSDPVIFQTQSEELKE

T1 sequence (Q9HBE5 20-538, chain 1 of 2): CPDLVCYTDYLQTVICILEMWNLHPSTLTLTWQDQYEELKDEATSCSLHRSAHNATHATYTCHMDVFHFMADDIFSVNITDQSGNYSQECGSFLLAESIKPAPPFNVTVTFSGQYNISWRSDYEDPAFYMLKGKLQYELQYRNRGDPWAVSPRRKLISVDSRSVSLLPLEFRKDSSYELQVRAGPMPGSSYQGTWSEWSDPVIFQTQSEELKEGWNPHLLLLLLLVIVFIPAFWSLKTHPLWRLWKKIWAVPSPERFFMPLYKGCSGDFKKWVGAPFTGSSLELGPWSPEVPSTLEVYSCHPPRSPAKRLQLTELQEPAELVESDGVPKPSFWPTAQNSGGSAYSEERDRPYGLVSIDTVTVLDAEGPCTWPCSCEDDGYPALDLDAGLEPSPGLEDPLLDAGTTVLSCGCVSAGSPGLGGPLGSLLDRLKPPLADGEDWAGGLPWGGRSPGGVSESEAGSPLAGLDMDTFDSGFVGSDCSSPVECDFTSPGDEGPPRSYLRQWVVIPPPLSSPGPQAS
T1 sequence (P31785 23-369, chain 2 of 2): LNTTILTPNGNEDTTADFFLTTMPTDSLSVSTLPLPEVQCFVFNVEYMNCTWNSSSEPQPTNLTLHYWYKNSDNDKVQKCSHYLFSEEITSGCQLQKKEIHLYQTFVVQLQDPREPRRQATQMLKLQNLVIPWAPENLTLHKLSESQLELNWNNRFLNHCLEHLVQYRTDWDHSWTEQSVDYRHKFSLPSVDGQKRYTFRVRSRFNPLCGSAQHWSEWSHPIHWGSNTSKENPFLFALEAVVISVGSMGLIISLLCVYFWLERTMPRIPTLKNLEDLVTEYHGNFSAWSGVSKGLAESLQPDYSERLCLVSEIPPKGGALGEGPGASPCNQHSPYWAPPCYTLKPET
Sequence of recombinant human IL-21 (rhIL-21) (Q9HBE4 30-162 limits assumed): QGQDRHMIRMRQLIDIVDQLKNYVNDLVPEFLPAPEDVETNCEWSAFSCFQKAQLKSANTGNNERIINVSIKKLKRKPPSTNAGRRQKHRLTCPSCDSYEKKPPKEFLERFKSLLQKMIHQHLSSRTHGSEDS

Binder	EC50B, pSTAT3+ Jurkat PD-1 cells, PD-1 blocked [1] [nM]	EC50NB, pSTAT3+ Jurkat PD-1 cells [1] [pM]	Δ [2]	% pSTAT3+ Jurkat cells, 0.1 nM rhIL-21 + 0 nM antibody [3] [%]	% pSTAT3+ Jurkat cells, 0.1 nM rhIL-21 + 0.1012 nM antibody [3] [%]	% pSTAT3+ Jurkat cells, 0.1 nM rhIL-21 + 0.1602 nM antibody [3] [%]	% pSTAT3+ Jurkat cells, 0.1 nM rhIL-21 + 0.2536 nM antibody [3] [%]	% pSTAT3+ Jurkat cells, 0.1 nM rhIL-21 + 0.4015 nM antibody [3] [%]	% pSTAT3+ Jurkat cells, 0.1 nM rhIL-21 + 0.6355 nM antibody [3] [%]	% pSTAT3+ Jurkat cells, 0.1 nM rhIL-21 + 1.006 nM antibody [3] [%]	% pSTAT3+ Jurkat cells, 0.1 nM rhIL-21 + 1.5925 nM antibody [3] [%]	% pSTAT3+ Jurkat cells, 0.1 nM rhIL-21 + 2.5209 nM antibody [3] [%]	% pSTAT3+ Jurkat cells, 0.1 nM rhIL-21 + 3.9906 nM antibody [3] [%]	% pSTAT3+ Jurkat cells, 0.1 nM rhIL-21 + 6.3171 nM antibody [3] [%]	% pSTAT3+ Jurkat cells, 0.1 nM rhIL-21 + 10 nM antibody [3] [%]	binding result [4]
B1	0.951	4	2.96	–	–	–	–	–	–	–	–	–	–	–	–	–
B2	1.52	3	8.18	–	–	–	–	–	–	–	–	–	–	–	–	–
B3	–	–	–	82.7	59.4	6.07	4.93	4.39	5.32	5.9	4.78	5.16	4.64	3.99	3.83	binds

— EP4671273A1 (Anaveon AG, dated 2025)
